By EC50 is commonly meant the midpoint of the concentration-response curve.

The results in this text go back to patent US20110059084A1 (BIOTEST, published 2011).

The assay addresses T1, CD4 on primary human peripheral lymphocytes (human, UniProt P01730 26-458).
T1 construct: whole, on cells; also called human lymphocytes
In words: flow cytometry on human PBMCs (CD3+ lymphocytes), MFI over serial dilutions of BT061. How it is done: Human PBMCs were isolated by density gradient centrifugation and stained with FITC-labelled anti-CD3 antibody (345763; Becton/Dickinson) and serial dilutions of BT061. BT061 binding was detected with an phycoerythrin labelled human IgG antibody (109-116-098; Jackson, Immunoresearch). By flow cytometric analysis the mean fluorescence intensity of CD3+ BT061 binding lymphocytes was determined.
Background: In flow cytometry, cells or beads pass a laser one at a time.

B1: humanized B-F5 H37L/L4M IgG1 (BT061) (antibody, V domains shown)
VH: EEQLVESGGGLVKPGGSLRLSCAASGFSFSDCRMYWLRQAPGKGLEWIGVISVKSENYGANYAESVRGRFTISRDDSKNTVYLQMNSLKTEDTAVYYCSASYYRYDVGAWFAYWGQGTLVTVSS
VL: DIVMTQSPDSLAVSLGERATINCRASKSVSTSGYSYIYWYQQKPGQPPKLLIYLASILESGVPDRFSGSGSGTDFTLTISSLQAEDVAVYYCQHSRELPWTFGQGTKVEIK
notes: also called hB-F5; humanised B-F5
Take B1: the EC50 is less than 0.01 µg/mL.
